Measurements published in patent US20180339057A1 (Novo Nordisk, published 2018).

T1: human MIC-1 receptor (hGFRAL, GDNF family receptor alpha like), full length (human, UniProt Q6UXV0 19-394)
T1 sequence (looked up): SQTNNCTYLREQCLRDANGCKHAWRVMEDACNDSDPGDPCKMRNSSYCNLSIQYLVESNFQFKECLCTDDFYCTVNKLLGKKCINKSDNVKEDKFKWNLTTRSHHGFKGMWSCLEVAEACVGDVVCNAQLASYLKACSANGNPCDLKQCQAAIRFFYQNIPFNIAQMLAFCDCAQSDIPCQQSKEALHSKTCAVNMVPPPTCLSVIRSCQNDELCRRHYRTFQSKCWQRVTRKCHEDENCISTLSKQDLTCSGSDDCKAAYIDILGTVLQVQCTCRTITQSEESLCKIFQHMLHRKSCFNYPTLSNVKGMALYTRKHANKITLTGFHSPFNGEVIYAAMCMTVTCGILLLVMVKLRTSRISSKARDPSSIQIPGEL


Assays:
[1] = molecular target: T1, human MIC-1 receptor (hGFRAL, GDNF …); assay: cell-based or functional assay
[2] = molecular target: T1, human MIC-1 receptor (hGFRAL, GDNF …); assay: SPA: displacement of 50 pM human [125I]-MIC-1 from BHK21-hGFRAL-IRES-hRET cell membranes
Procedure: Binding potencies of MIC-1 compounds were calculated by IC50 of displacement curves.
BHK21-hGFRAL-IRES-hRET cells were cultured at +37° C. in a humidified atmosphere with 5% CO₂ in complete medium consisting of DMEM with high glucose and sodium pyrovate, heat inactivated 10% Fetal Bovine Serum, 1% Penicillin-Streptomycin, 1 mg/ml G418-Geneticin and 400 ug/ml Hygromycin. Cells were washed twice in ice cold Dulbecco's phosphate-buffered saline (DPBS) and detached mechanically by scraping, transferred in ice cold DPBS into conical centrifuge tubes and centrifuged for 5 min at 1500 rpm at +20° C. Cell pellet was resuspended in a total amount of 10 ml ice cold homogenization buffer A (50 mM Tris, 2.5 mM EDTA, adjust pH7.4 with one EDTA-free protease inhibitor cocktail tablet/50 ml) and homogenized for 20 seconds. The homogenate was centrifuged at 16000 rpm in 20 minutes at +4° C. The supernatant was discarded and the pellet was reconstituted in 10 ml homogenization buffer B (50 mM Tris, 320 mM Sucrose, adjust pH 7.4 with one EDTA-free protease inhibitor cocktail tablet/50 ml) and homogenized for 20 seconds and centrifuged at 16000 rpm in 20 minutes at +4° C. This procedure was repeated one more time. The supernatant was discarded and the pellet was reconstituted in 3 ml homogenization buffer B and homogenized for 10 seconds at low speed. Protein concentration was determined by standard Bradford method and 1.5 mg protein/tube was aliquoted to cryotubes and stored at −80° C. Binding assays were performed in white 96-well plates in a total volume of 200 μl per well. Wheat germ agglutinin SPA beads were reconstituted in assay buffer (50 mM Tris/HCl, 4.5 mM MgCl₂, 0.02% Tween 20 and 0.25% Ovalbumin pH 7.4) and mixed with membrane preparation to give a final concentration of 0.5 mg SPA beads and 10 μg total protein per well. […] The plate was sealed and incubated at +22° C. for 2 hours in a plate shaker set at 350 rpm and thereafter centrifuged at 1500 rpm for 10 minutes prior to reading of SPA bead light emission.

[3] = molecular target: T1, human MIC-1 receptor (hGFRAL, GDNF …); assay: cell-based or functional assay; remark: listed apart in the source

| Binder | Luciferase + 0.1% HSA NNDK EC50 (pM) [1] [pM] | Luciferase NNDK EC50 (pM) [1] [pM] | IC50 [2] [nM] | Emax (%) [3] [%] | pERK EC50 (nM) [3] [nM] |
| --- | --- | --- | --- | --- | --- |
| Compound 16 (ligand, alpha-amino group of the N-terminal Ser-32 (residue 1 of SEQ ID NO: 312): N-[4-[[[2-[2-[2-[[2-[2-[2-[[(4S)-4-carboxy-4-(17-carboxyheptadecanoylamino)butanoyl]amino]ethoxy]ethoxy]acetyl]amino]ethoxy]ethoxy]acetyl]amino]methyl]phenyl]methyl (protractor of Example 10.1), homodimer, two protractors per dimer; also called dialkylated) SEPATSGSETPGTSESATPESGPGTSTEPSEGARGDHCPLGPGRCCRLHTVRASLEDLGWADWVLSPREVQVTMCIGACPSQFRAANLHAQIKTSLHRLRPDTVPAPCCVPASYNPLVLIQRTDTGVSLQTYDDLLARDCHCI | 51 | 63 | 11 |  |  |
| Compound 17 (ligand, Cys-29 (residue 4 of SEQ ID NO: 288): S{Beta}-[2-[2-[[2-[2-[2-[[2-[2-[2-[[(4S)-4-carboxy-4-(16-sulfohexadecanoylamino)butanoyl]amino]ethoxy]ethoxy]acetyl]amino]ethoxy]ethoxy]acetyl]amino]ethylamino]-2-oxoethyl]Cys (protractor of Example 10.6), homodimer, two protractors per dimer) SEPCTSGSETPGTSESATPESGPGTSTEPSEGARGDHCPLGPGRCCRLHTVRASLEDLGWADWVLSPREVQVTMCIGACPSQFRAANMHAQIKTSLHRLKPDTVPAPCCVPASYNPMVLIQKTDTGVSLQTYDDLLAKDCHCI | 65 | 43 | 4.7 |  |  |
| Compound 18 (ligand, Cys-29 (residue 4 of SEQ ID NO: 288): S{Beta}-[2-[[(5S)-5-carboxy-5-[[2-[2-[2-[[2-[2-[2-[4-[17-(1H-tetrazol-5-yl)heptadecanoylsulfamoyl]butanoylamino]ethoxy]ethoxy]acetyl]amino]ethoxy]ethoxy]acetyl]amino]pentyl]amino]-2-oxoethyl]Cys (protractor of Example 10.7), homodimer, two protractors per dimer) SEPCTSGSETPGTSESATPESGPGTSTEPSEGARGDHCPLGPGRCCRLHTVRASLEDLGWADWVLSPREVQVTMCIGACPSQFRAANMHAQIKTSLHRLKPDTVPAPCCVPASYNPMVLIQKTDTGVSLQTYDDLLAKDCHCI | 67 | 66 | 1.3 |  |  |
| Compound 19 (ligand, Cys-29 (residue 4 of SEQ ID NO: 288): S{Beta}-[2-[[(1S)-1-carboxy-5-[[2-[2-[2-[[2-[2-[2-[[(4S)-4-carboxy-4-[10-(4-carboxyphenoxy)decanoylamino]butanoyl]amino]ethoxy]ethoxy]acetyl]amino]ethoxy]ethoxy]acetyl]amino]pentyl]amino]-2-oxoethyl]Cys (protractor of Example 10.8), homodimer, two protractors per dimer) SEPCTSGSETPGTSESATPESGPGTSTEPSEGARGDHCPLGPGRCCRLHTVRASLEDLGWADWVLSPREVQVTMCIGACPSQFRAANMHAQIKTSLHRLKPDTVPAPCCVPASYNPMVLIQKTDTGVSLQTYDDLLAKDCHCI | 62 | 45 | 17 |  |  |
| Compound 20 (ligand, Cys-29 (residue 4 of SEQ ID NO: 288): S{Beta}-[2-[[(1S)-1-carboxy-5-[[2-[2-[2-[[2-[2-[2-[[(4S)-4-carboxy-4-[12-(4-carboxyphenoxy)dodecanoylamino]butanoyl]amino]ethoxy]ethoxy]acetyl]amino]ethoxy]ethoxy]acetyl]amino]pentyl]amino]-2-oxoethyl]Cys (protractor of Example 10.9), homodimer, two protractors per dimer) SEPCTSGSETPGTSESATPESGPGTSTEPSEGARGDHCPLGPGRCCRLHTVRASLEDLGWADWVLSPREVQVTMCIGACPSQFRAANMHAQIKTSLHRLKPDTVPAPCCVPASYNPMVLIQKTDTGVSLQTYDDLLAKDCHCI | 77 | 49 | 6.5 |  |  |
| Compound 21 (ligand, Cys-29 (residue 4 of SEQ ID NO: 288): S{Beta}-[2-[2-[[2-[2-[2-[[2-[2-[2-[[(4S)-4-carboxy-4-[16-(1H-tetrazol-5-yl)hexadecanoylamino]butanoyl]amino]ethoxy]ethoxy]acetyl]amino]ethoxy]ethoxy]acetyl]amino]ethylamino]-2-oxoethyl]Cys (protractor of Example 10.10), homodimer, two protractors per dimer) SEPCTSGSETPGTSESATPESGPGTSTEPSEGARGDHCPLGPGRCCRLHTVRASLEDLGWADWVLSPREVQVTMCIGACPSQFRAANMHAQIKTSLHRLKPDTVPAPCCVPASYNPMVLIQKTDTGVSLQTYDDLLAKDCHCI | 56 | 53 | 1 |  |  |
| SEPATSGSETPGTSESATPESGPGTSTEPSEG-MIC-1-Δ1-3 (ligand) SEPATSGSETPGTSESATPESGPGTSTEPSEGGDHCPLGPGRCCRLHTVRASLEDLGWADWVLSPREVQVTMCIGACPSQFRAANMHAQIKTSLHRLKPDTVPAPCCVPASYNPMVLIQKTDTGVSLQTYDDLLAKDCHCI |  |  |  | 100 | 0.4 |
| (SEPATSGSETPG)2-MIC-1-Δ1-3(M86L) (ligand) SEPATSGSETPGSEPATSGSETPGGDHCPLGPGRCCRLHTVRASLEDLGWADWVLSPREVQVTMCIGACPSQFRAANMHAQIKTSLHRLKPDTVPAPCCVPASYNPLVLIQKTDTGVSLQTYDDLLAKDCHCI |  |  |  | 100 | 0.4 |
| MIC-1(R2A,N3E,A81E) (ligand) AAEGDHCPLGPGRCCRLHTVRASLEDLGWADWVLSPREVQVTMCIGACPSQFRAANMHAQIKTSLHRLKPDTVPAPCCVPESYNPMVLIQKTDTGVSLQTYDDLLAKDCHCI |  |  |  | 100 | 0.3 |
| (SEPATSGSETPG)2-MIC-1-Δ1-3(M57L, M86L) (ligand) SEPATSGSETPGSEPATSGSETPGGDHCPLGPGRCCRLHTVRASLEDLGWADWVLSPREVQVTMCIGACPSQFRAANLHAQIKTSLHRLKPDTVPAPCCVPASYNPLVLIQKTDTGVSLQTYDDLLAKDCHCI |  |  |  | 100 | 0.4 |
